Data set [1] concerns T1, RinA (Staphylococcus aureus NCTC8325 (phage phi11)), ORF:ad3d0fcb.
T1 sequence: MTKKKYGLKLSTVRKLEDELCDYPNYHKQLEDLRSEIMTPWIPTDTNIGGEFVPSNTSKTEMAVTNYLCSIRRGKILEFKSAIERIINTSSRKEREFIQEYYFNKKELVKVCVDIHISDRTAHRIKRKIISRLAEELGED
Put plainly: EMSA. Conditions: 50 mM Tris-HCl, 300 mM NaCl, pH 8.0 ([…], room temperature.

Data set [2] has the same test system. In words: competition. As to conditions: 50 mM Tris-HCl, 300 mM NaCl, pH 8.0 ([…], room temperature.

We go through two sequences from publication PMC9867676.

With “CTAAACCAAATGCTAACCCAGAAATACAATCACTGTGTCTAATGAATAATTTGTTTTATAAACACTTTTTTGTTTACTTCTCATTTTTAATTAGTTATAATTAACTAAATAATAGAGCATTAAATATATTTAATAAAACTTATTTAATGCAAAATTATGACTAACATATCTATAATAAATAAAGATTAGATATCAATATATTATCGGGCAAATGTATCGAGCAAGATGCATCAAATAGGGAGGTTTTAAACATGGC (double strand) [sarA promoter fragment (FAM)]”, the binding result in data set [1] was “binds”.

In the case of “CTAAACCAAATGCTAACCCAGAAATACAATCACTGTGTCTAATGAATAATTTGTTTTATAAACACTTTTTTGTTTACTTCTCATTTTTAATTAGTTATAATTAACTAAATAATAGAGCATTAAATATATTTAATAAAACTTATTTAATGCAAAATTATGACTAACATATCTATAATAAATAAAGATTAGATATCAATATATTATCGGGCAAATGTATCGAGCAAGATGCATCAAATAGGGAGGTTTTAAACATGGC (double strand) [sarA promoter fragment (unlabeled)]”, the binding result in data set [2] is given as “binds”.
